Measured values as given in patent publication US20250161359A1.

Experiments:
[1] = target: PR3_1_30: PR3_1_(WT) CD33SP MS CD28TM CAAR (human); assay: cell-based or functional assay
[2] = target: PR3_10_56: PR3_10 (H44A) CD33SP SS CD28TM CAAR (human); assay: cell-based or functional assay
Sequence of PR3_10_56: PR3_10 (H44A) CD33SP SS CD28TM CAAR (human) (chain, as listed by the source H44A H44A limits assumed): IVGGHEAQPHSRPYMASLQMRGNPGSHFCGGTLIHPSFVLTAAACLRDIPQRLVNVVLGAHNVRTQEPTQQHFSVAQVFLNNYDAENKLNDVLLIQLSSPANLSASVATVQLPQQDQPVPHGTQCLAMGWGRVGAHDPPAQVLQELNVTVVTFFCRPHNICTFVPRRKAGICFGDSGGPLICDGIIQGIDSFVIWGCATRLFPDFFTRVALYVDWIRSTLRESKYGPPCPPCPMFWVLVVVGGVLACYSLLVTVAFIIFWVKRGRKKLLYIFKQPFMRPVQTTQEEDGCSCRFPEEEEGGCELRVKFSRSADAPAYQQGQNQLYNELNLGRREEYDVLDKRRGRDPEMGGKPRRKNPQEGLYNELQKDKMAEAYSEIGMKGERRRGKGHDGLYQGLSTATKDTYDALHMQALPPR

Sequence of PR3_1_30: PR3_1_(WT) CD33SP MS CD28TM CAAR (human) (chain, as listed by the source limits assumed): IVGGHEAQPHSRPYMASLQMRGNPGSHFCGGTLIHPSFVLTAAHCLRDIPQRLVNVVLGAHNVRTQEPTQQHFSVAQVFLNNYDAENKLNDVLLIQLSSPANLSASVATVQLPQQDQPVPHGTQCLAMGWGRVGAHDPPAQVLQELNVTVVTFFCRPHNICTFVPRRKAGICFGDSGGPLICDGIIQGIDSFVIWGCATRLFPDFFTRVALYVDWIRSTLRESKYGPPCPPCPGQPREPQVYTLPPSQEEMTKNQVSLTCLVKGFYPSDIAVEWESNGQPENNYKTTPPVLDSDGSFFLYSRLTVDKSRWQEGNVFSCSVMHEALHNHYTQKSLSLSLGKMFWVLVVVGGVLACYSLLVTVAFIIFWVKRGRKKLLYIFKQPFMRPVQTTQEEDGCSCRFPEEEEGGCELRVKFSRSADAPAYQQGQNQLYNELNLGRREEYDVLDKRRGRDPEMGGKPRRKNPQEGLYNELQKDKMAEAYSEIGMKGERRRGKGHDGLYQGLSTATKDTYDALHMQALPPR

anti-PR3 antibody, EMD Millipore, clone MCPR3-3, catalog #MABF973
CAAR killing efficiency against the lowest density IgG+-CHO-S target (MCPR3-3 #4 (L)) [1]: 65% | CAAR killing efficiency against the lowest density IgG+-CHO-S target (MCPR3-3 #4 (L)) [2]: 65%
